Test results as given in article PMC11402785, “Structural basis for activity switching in polymerases determining the fate of let-7 pre-miRNAs” (Nature Structural & Molecular Biology, 2024).

T1: TUT4 (ZCCHC11);LIN28A (Homo sapiens;Homo sapiens, UniProt Q5TAX3;Q9H9Z2 254-1315;1-209, |)
T1 sequence 1: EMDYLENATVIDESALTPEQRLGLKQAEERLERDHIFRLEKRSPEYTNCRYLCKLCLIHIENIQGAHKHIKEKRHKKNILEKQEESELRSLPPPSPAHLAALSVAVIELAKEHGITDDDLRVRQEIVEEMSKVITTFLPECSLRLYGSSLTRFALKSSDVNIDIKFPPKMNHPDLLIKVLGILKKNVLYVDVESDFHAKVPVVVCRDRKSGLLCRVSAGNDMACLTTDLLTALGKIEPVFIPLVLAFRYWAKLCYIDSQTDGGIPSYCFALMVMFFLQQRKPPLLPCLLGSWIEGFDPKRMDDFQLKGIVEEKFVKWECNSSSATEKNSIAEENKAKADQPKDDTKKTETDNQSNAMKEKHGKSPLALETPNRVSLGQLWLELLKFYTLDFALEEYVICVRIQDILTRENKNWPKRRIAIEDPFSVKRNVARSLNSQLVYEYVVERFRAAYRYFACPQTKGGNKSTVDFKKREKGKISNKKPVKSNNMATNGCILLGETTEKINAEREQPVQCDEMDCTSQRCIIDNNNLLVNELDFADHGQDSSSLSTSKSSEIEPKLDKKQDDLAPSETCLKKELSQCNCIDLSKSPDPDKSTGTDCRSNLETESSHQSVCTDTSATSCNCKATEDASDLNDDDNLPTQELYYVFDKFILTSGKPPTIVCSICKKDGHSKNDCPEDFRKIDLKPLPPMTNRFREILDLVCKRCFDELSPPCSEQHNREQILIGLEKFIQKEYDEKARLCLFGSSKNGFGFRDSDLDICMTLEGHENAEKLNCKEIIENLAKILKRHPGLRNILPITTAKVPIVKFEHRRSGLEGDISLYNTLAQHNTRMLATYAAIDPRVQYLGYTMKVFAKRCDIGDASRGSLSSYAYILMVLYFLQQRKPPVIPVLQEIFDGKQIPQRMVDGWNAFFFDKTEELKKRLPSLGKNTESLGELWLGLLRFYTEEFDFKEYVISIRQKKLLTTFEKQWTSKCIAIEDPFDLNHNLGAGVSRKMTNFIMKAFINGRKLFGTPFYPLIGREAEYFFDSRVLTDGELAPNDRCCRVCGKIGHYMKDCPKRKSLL
T1 sequence 2: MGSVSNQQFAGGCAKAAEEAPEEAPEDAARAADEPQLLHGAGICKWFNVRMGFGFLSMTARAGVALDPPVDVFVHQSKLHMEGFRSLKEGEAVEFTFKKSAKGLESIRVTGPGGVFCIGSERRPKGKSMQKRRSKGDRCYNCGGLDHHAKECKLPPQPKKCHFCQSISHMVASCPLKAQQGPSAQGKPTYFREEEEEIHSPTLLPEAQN

T2: TUT4 K919/K920 mutant (ZK1);LIN28A (Homo sapiens;Homo sapiens, UniProt Q5TAX3;Q9H9Z2 254-1315;1-209, K919A;K920A|)
T2 sequence 1: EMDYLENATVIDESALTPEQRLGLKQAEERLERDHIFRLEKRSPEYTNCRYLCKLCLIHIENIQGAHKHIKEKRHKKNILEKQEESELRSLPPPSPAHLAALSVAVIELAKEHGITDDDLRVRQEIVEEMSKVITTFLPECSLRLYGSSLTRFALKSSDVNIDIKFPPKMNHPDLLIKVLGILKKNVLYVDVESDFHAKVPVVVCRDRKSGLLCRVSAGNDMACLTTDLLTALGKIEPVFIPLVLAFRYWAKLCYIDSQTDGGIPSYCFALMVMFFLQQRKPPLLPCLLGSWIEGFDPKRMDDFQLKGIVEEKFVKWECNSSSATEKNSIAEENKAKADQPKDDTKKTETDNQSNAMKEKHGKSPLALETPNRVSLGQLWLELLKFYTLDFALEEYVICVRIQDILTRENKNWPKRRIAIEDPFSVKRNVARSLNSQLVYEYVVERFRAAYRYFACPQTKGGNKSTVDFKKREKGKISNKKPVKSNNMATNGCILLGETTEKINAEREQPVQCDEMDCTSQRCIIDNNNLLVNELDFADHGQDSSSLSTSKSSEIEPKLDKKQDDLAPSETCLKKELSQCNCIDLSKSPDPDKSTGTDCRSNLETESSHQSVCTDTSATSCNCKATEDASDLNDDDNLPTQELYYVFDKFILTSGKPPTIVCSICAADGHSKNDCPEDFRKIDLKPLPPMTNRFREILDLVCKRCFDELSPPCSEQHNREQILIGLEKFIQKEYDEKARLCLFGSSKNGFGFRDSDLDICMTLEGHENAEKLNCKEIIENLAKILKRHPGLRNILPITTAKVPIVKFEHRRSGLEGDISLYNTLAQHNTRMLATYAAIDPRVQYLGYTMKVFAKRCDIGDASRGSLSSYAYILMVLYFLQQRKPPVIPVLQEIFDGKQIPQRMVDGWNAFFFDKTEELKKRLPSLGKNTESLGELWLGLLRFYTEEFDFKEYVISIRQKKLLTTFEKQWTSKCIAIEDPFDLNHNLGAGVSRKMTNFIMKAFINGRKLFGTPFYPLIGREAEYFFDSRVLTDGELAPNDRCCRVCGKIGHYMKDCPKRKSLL
T2 sequence 2: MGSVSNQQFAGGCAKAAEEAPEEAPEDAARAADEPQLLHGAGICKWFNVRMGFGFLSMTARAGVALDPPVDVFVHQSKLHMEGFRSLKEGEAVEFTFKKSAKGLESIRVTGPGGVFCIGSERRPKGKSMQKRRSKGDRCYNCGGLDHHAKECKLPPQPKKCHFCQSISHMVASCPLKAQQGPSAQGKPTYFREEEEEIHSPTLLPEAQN


What was measured:
[1] = molecular target: T1, TUT4 (ZCCHC11);LIN28A; assay: cryo-EM; Zn2+; ternary capture state, 3.68 A; EMSA: 20 mM HEPES pH 7.8, 100 mM NaCl, 2 mM CaCl2, 50 uM ZnCl2, 5% glycerol, 5 mM DTT, 0.5 mM UTP, RNase inhibitor, on ice 30 min; 0.1 uM RNA, 0.2 uM TUT, 0.3 uM LIN28A; native gel in 1x TBE at 4 C; conditions: protein: recombinant;recombinant; tags: N-term His6-GST (TEV cleavable), C-term twin-Strep;N-term His6-GST fusion; copies: 1;1; hairpin, 1 nt 3' overhang
[2] = molecular target: TUT7 (ZCCHC6);LIN28A (Homo sapiens;Homo sapiens, UniProt Q5VYS8;Q9H9Z2 1-1495;1-209, |); assay: cryo-EM; Zn2+; ternary conformation I, 3.81 A; EMSA: 20 mM HEPES pH 7.8, 100 mM NaCl, 2 mM CaCl2, 50 uM ZnCl2, 5% glycerol, 5 mM DTT, 0.5 mM UTP, RNase inhibitor, on ice 30 min; 0.1 uM RNA, 0.2 uM TUT, 0.3 uM LIN28A; native gel in 1x TBE at 4 C; conditions: protein: recombinant;recombinant; tags: N-term His6-GST (TEV cleavable), C-term twin-Strep;N-term His6-GST fusion; copies: 1;1; hairpin, 1 nt 3' overhang
Sequence of TUT7 (ZCCHC6);LIN28A (Q5VYS8 whole entry, the tested form may be a part, one chain of several): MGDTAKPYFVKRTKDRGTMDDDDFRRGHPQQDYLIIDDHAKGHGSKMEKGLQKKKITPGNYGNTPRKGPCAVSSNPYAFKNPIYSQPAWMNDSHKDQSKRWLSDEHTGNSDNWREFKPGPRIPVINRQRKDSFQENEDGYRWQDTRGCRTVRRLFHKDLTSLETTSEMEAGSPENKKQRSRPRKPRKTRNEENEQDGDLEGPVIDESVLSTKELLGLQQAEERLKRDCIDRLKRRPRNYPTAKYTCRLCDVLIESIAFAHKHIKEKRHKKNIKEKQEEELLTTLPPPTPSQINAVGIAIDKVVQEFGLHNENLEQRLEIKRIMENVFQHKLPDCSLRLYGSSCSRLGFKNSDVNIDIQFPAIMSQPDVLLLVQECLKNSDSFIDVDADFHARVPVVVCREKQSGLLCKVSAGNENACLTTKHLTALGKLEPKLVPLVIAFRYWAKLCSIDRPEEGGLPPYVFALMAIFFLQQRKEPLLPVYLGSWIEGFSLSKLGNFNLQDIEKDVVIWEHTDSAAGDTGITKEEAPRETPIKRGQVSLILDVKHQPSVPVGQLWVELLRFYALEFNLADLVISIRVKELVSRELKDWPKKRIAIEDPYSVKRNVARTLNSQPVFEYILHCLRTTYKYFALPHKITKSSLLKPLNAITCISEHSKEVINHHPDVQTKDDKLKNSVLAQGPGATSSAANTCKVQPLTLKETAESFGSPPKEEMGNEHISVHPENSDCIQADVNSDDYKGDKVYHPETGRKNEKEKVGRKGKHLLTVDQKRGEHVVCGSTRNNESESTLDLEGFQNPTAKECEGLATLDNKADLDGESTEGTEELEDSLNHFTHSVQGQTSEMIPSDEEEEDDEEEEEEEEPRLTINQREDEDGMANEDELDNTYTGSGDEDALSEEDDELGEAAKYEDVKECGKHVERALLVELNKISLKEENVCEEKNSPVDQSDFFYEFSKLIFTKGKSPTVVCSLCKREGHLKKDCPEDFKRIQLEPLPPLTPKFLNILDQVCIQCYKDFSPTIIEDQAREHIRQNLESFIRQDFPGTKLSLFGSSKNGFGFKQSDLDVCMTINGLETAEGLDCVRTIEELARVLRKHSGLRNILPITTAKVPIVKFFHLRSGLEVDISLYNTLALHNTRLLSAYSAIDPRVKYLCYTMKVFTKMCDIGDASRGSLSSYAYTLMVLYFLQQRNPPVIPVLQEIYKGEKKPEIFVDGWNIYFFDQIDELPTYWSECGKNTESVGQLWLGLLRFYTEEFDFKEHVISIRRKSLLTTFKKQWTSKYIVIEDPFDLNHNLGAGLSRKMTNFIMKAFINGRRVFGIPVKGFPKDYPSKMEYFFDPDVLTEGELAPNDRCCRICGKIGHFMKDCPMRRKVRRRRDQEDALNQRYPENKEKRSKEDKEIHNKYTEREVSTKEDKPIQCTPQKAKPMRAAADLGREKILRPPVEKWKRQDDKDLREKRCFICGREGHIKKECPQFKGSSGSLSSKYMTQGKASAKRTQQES

[3] = molecular target: T2, TUT4 K919/K920 mutant (ZK1);LIN28A; assay: EMSA; 0.5 mM UTP, Ca2+, Zn2+; higher-order assemblies seen; EMSA: 20 mM HEPES pH 7.8, 100 mM NaCl, 2 mM CaCl2, 50 uM ZnCl2, 5% glycerol, 5 mM DTT, 0.5 mM UTP, RNase inhibitor, on ice 30 min; 0.1 uM RNA, 0.2 uM TUT, 0.3 uM LIN28A; native gel in 1x TBE at 4 C; conditions: protein: recombinant;recombinant; tags: N-term His6-GST (TEV cleavable), C-term twin-Strep;N-term His6-GST fusion; copies: 1;1; label: 3' CY dye; hairpin, 1 nt 3' overhang
[4] = molecular target: T1, TUT4 (ZCCHC11);LIN28A; assay: EMSA; 0.5 mM UTP, Ca2+, Zn2+; higher-order assemblies, concentration dependent; EMSA: 20 mM HEPES pH 7.8, 100 mM NaCl, 2 mM CaCl2, 50 uM ZnCl2, 5% glycerol, 5 mM DTT, 0.5 mM UTP, RNase inhibitor, on ice 30 min; 0.1 uM RNA, 0.2 uM TUT, 0.3 uM LIN28A; native gel in 1x TBE at 4 C; conditions: protein: recombinant;recombinant; tags: N-term His6-GST (TEV cleavable), C-term twin-Strep;N-term His6-GST fusion; copies: 1;1; label: 3' CY dye; hairpin, 1 nt 3' overhang

Row | Binder | binding result [1] | binding result [2] | binding result [3] | binding result [4]
1 | pre-let-7g (structured_RNA) RNA: UGAGGUAGUAGUUUGUACAGUUUGAGGGUCUAUGAUACCACCCGGUACAGGAGAUAACUGUACAGGCCACUGCCUUGC | binds | binds |  | 
2 | pre-let-7g_3'CY (structured_RNA) RNA: UGAGGUAGUAGUUUGUACAGUUUGAGGGUCUAUGAUACCACCCGGUACAGGAGAUAACUGUACAGGCCACUGCCUUGC |  |  | binds | binds
